Laboratory results reported in publication PMC3946817 (Journal of molecular biology, 2013).

Biological target: the molecule itself
Experiment: ThT fluorescence + AFM

GAVVYSGSLYFQ [peptide P1 (G326AVVYSGSLYFQ) of myoc-OLF]: binds.

VANAFIICGTLYTVSSY [peptide P3 (V426ANAFIICGTLYTVSSY) of myoc-OLF]: binds.
